These results are taken from US20210181204A1.

For the experiment, the target named is eCry3.1Ab hybrid insecticidal protein. Description: direct ELISA: eCry3.1Ab coated at 1 ug/ml, RGS-His HRP detection. (In general: In an ELISA, binding on a coated surface is turned into a signal by an enzyme label.)

B1: synNAPS13 variant Y44A (designed binder)
chain: RGSHHHHHHGSMVKVKFKRWGEEKEVDTSKILHVLRVGKYVRFSYDDNGKLGAGAVTEKDAPKELLDMLARAEREKK
As for B1, the Binding (OD 450 nm) stood at 0.4 OD 450 nm.
